# In patent publication US20210040177A1 (IMUNEXUS, published 2021):
# Read-outs that look alike come from different tables or passages of the source.
# T1: B7-1-Fc (R&D Systems Cat #140-B1) (UniProt P33681 35-242)
# T1 construct: Bought reagent; also called CD80; not shown: Fc part of the bought fusion
# T1 sequence (looked up): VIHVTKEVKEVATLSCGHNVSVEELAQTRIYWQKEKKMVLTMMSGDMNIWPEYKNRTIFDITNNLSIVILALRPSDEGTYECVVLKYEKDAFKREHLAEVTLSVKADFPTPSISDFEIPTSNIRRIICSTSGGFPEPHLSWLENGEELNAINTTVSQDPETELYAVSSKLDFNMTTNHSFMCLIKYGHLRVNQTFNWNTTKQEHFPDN
# How the values were obtained:
# [1] = target: T1, B7-1-Fc (R&D Systems Cat #140-B1); experiment: SPR (Biacore X100); molecule captured on biotin-lysozyme, B7-1-Fc as analyte
# [2] = target: T1, B7-1-Fc (R&D Systems Cat #140-B1); experiment: as above; remark: listed apart in the source
# [3] = target: T1, B7-1-Fc (R&D Systems Cat #140-B1); experiment: BLItz bio-layer interferometry; D1.3 IgG held on immobilised lysozyme, B7-1-Fc added at Point 1, buffer at Point 2
# From the text: At Point 2, B7-1-Fc was replaced with Buffer. […] At Point 2, B7-1-Fc was replaced with Buffer.
Binder,Kd [1],koff [1],kon [1],Kd [2],koff [2],kon [2],binding result [3]
"D1.3 IgG-VLDx2 (HC) (bispecific antibody, unfused kappa light chain; also called bi-specific-D1.3 IgG-VLDx2 (HC)) heavy: not shown light: DIELTQSPASLSASVGETVTITCRASGNIHNYLAWYQQKQGKSPQLLVYYTTTLADGVPSRFSGSGSGTQYSLKINSLQPEDFGSYYCQHFWSTPRTFGGGTKLELKRTVAAPSVFIFPPSDEQLKSGTASVVCLLNNFYPREAKVQWKVDNALQSGNSQESVTEQDSKDSTYSLSSTLTLSKADYEKHKVYACEVTHQGLSSPVTKSFNRGEC",5.44 nM,0.0028 s⁻¹,516000 M⁻¹ s⁻¹,,,,
D1.3 Fab-VLDx1 (HC) (bispecific antibody) heavy: EVKLQESGPGLVAPSQSLSITCTVSGFSLTGYGVNWVRQPPGKGLEWLGMIWGDGNTDYNSALKSRLSISKDNSKSQVFLKMNSLHTDDTARYYCARERDYRLDYWGQGTTVTVSSASTKGPSVFPLAPSSKSTSGGTAALGCLVKDYFPEPVTVSWNSGALTSGVHTFPAVLQSSGLYSLSSVVTVPSSSLGTQTYICNVNHKPSNTKVDKKVEPKSCSGGGGSGGGGSGGGGSGGGGSKAMHVAQPAVVLASSRGIASFVCEYASPGKYTEVRVTVLRQADSQVTEVCAATYMTGNELTFLDDSICTGTSSGNQVNLTIQGLRAMDTGLYICKVELMYPPPYYLGIGNGTQIYVIDPEPSPDSN light: DIELTQSPASLSASVGETVTITCRASGNIHNYLAWYQQKQGKSPQLLVYYTTTLADGVPSRFSGSGSGTQYSLKINSLQPEDFGSYYCQHFWSTPRTFGGGTKLELKRTVAAPSVFIFPPSDEQLKSGTASVVCLLNNFYPREAKVQWKVDNALQSGNSQESVTEQDSKDSTYSLSSTLTLSKADYEKHKVYACEVTHQGLSSPVTKSFNRGEC,,,,5.41 nM,0.00285 s⁻¹,526000 M⁻¹ s⁻¹,
"D1.3 Fab-VLDx1 (LC) (bispecific antibody, also called D1.3 VLDx1 (LC); D1.3 Fab-VLDx1 (CL)) heavy: EVKLQESGPGLVAPSQSLSITCTVSGFSLTGYGVNWVRQPPGKGLEWLGMIWGDGNTDYNSALKSRLSISKDNSKSQVFLKMNSLHTDDTARYYCARERDYRLDYWGQGTTVTVSSASTKGPSVFPLAPSSKSTSGGTAALGCLVKDYFPEPVTVSWNSGALTSGVHTFPAVLQSSGLYSLSSVVTVPSSSLGTQTYICNVNHKPSNTKVDKRVEPKSCAAAGLGGHHHHHHGAAEQKLISEEDL light: DIELTQSPASLSASVGETVTITCRASGNIHNYLAWYQQKQGKSPQLLVYYTTTLADGVPSRFSGSGSGTQYSLKINSLQPEDFGSYYCQHFWSTPRTFGGGTKLELKRTVAAPSVFIFPPSDEQLKSGTASVVCLLNNFYPREAKVQWKVDNALQSGNSQESVTEQDSKDSTYSLSSTLTLSKADYEKHKVYACEVTHQGLSSPVTKSFNRGECSGGGGSGGGGSGGGGSGGGGSKAMHVAQPAVVLASSRGIASFVCEYASPGKYTEVRVTVLRQADSQVTEVCAATYMTGNELTFLDDSICTGTSSGNQVNLTIQGLRAMDTGLYICKVELMYPPPYYLGIGNGTQIYVIDPEPSPDSN",,,,13.6 nM,0.00296 s⁻¹,218000 M⁻¹ s⁻¹,
"D1.3 Fab-VLDx2 (HC+LC) (bispecific antibody, also called D1.3 VLDx2 (HC+LC); D1.3 Fab-VLDx2 (LC+HC)) heavy: EVKLQESGPGLVAPSQSLSITCTVSGFSLTGYGVNWVRQPPGKGLEWLGMIWGDGNTDYNSALKSRLSISKDNSKSQVFLKMNSLHTDDTARYYCARERDYRLDYWGQGTTVTVSSASTKGPSVFPLAPSSKSTSGGTAALGCLVKDYFPEPVTVSWNSGALTSGVHTFPAVLQSSGLYSLSSVVTVPSSSLGTQTYICNVNHKPSNTKVDKKVEPKSCSGGGGSGGGGSGGGGSGGGGSKAMHVAQPAVVLASSRGIASFVCEYASPGKYTEVRVTVLRQADSQVTEVCAATYMTGNELTFLDDSICTGTSSGNQVNLTIQGLRAMDTGLYICKVELMYPPPYYLGIGNGTQIYVIDPEPSPDSN light: DIELTQSPASLSASVGETVTITCRASGNIHNYLAWYQQKQGKSPQLLVYYTTTLADGVPSRFSGSGSGTQYSLKINSLQPEDFGSYYCQHFWSTPRTFGGGTKLELKRTVAAPSVFIFPPSDEQLKSGTASVVCLLNNFYPREAKVQWKVDNALQSGNSQESVTEQDSKDSTYSLSSTLTLSKADYEKHKVYACEVTHQGLSSPVTKSFNRGECSGGGGSGGGGSGGGGSGGGGSKAMHVAQPAVVLASSRGIASFVCEYASPGKYTEVRVTVLRQADSQVTEVCAATYMTGNELTFLDDSICTGTSSGNQVNLTIQGLRAMDTGLYICKVELMYPPPYYLGIGNGTQIYVIDPEPSPDSN",,,,9.73 nM,0.00433 s⁻¹,445000 M⁻¹ s⁻¹,

# Continued, values first:
Kd [1],koff [1],kon [1],Kd [2],koff [2],kon [2],binding result [3],Binder
,,,,,,no binding,"D1.3 anti-lysozyme antibody [D1.3 IgG] (antibody, V domains shown, Full length IgG1 kappa, expressed in Expi293 cells; parent of all IgG-VLD fusions; also called D1.3 IgG alone (full length); D1.3 antibody) VH: EVKLQESGPGLVAPSQSLSITCTVSGFSLTGYGVNWVRQPPGKGLEWLGMIWGDGNTDYNSALKSRLSISKDNSKSQVFLKMNSLHTDDTARYYCARERDYRLDYWGQGTTVTVSS VL: DIELTQSPASLSASVGETVTITCRASGNIHNYLAWYQQKQGKSPQLLVYYTTTLADGVPSRFSGSGSGTQYSLKINSLQPEDFGSYYCQHFWSTPRTFGGGTKLELKR"
5.47 nM,0.0029 s⁻¹,530000 M⁻¹ s⁻¹,,,,,"D1.3 IgG-VLDx4 (HC+LC) (bispecific antibody, also called IgG Imx4 (HC+LC); IgG Imx4 (HCLC)) heavy: not shown light: DIELTQSPASLSASVGETVTITCRASGNIHNYLAWYQQKQGKSPQLLVYYTTTLADGVPSRFSGSGSGTQYSLKINSLQPEDFGSYYCQHFWSTPRTFGGGTKLELKRTVAAPSVFIFPPSDEQLKSGTASVVCLLNNFYPREAKVQWKVDNALQSGNSQESVTEQDSKDSTYSLSSTLTLSKADYEKHKVYACEVTHQGLSSPVTKSFNRGECSGGGGSGGGGSGGGGSGGGGSKAMHVAQPAVVLASSRGIASFVCEYASPGKYTEVRVTVLRQADSQVTEVCAATYMTGNELTFLDDSICTGTSSGNQVNLTIQGLRAMDTGLYICKVELMYPPPYYLGIGNGTQIYVIDPEPSPDSN"
24.5 nM,0.004 s⁻¹,163000 M⁻¹ s⁻¹,,,,,"D1.3 IgG-VLDx2 (LC) (bispecific antibody, unfused heavy chain; also called D1.3 IgG-VDLx2 (LC); bi-specific-D1.3 IgG-VLDx2 (LC)) heavy: not shown light: DIELTQSPASLSASVGETVTITCRASGNIHNYLAWYQQKQGKSPQLLVYYTTTLADGVPSRFSGSGSGTQYSLKINSLQPEDFGSYYCQHFWSTPRTFGGGTKLELKRTVAAPSVFIFPPSDEQLKSGTASVVCLLNNFYPREAKVQWKVDNALQSGNSQESVTEQDSKDSTYSLSSTLTLSKADYEKHKVYACEVTHQGLSSPVTKSFNRGECSGGGGSGGGGSGGGGSGGGGSKAMHVAQPAVVLASSRGIASFVCEYASPGKYTEVRVTVLRQADSQVTEVCAATYMTGNELTFLDDSICTGTSSGNQVNLTIQGLRAMDTGLYICKVELMYPPPYYLGIGNGTQIYVIDPEPSPDSN"
